Data as given in publication PMC2656773 (Neuron, 2009).

Target: the molecule itself
Assay: non-reducing SDS-PAGE

B1: His-tagged Snapin wild-type (natural protein, UniProt Q9Z266 1-136, looked up)
chain: MAAAGSAAVSGAGTPVAGPTGRDLFAEGLLEFLRPAVQQLDSHVHAVRESQVELREQIDNLATELCRINEDQKVALDLDPYVKKLLNARRRVVLVNNILQNAQERLRRLNHSVAKETARRRAMLDSGVYPPGSPSK
- stoichiometry N: 2
